Measured values from patent US20210246166A1 (Bayer, published 2021).
Bridge positions count the residues as written; N and C are the ends. Square brackets hold non-standard residues; d marks the D form. Ends that are not written are not given here. * marks the point of attachment. Pro(3S,4R-methano) = O=C(O)[C@H]1NC[C@@H]2C[C@@H]21; Benzoyl(3-COOH) = O=C(O)c1cccc(C(=O)*)c1; Benzoyl(4-COOH) = O=C(O)c1ccc(C(=O)*)cc1; Oic = O=C(O)[C@@H]1C[C@@H]2CCCC[C@@H]2N1; tBuAla = CC(C)(C)C[C@H](N)C(=O)O; PEG4 = NCCOCCOCCOCCOCCC(=O)O; Pen = CC(C)(S)[C@H](N)C(=O)O; Orn = NCCC[C@H](N)C(=O)O; PEG2 = NCCOCCOCCC(=O)O; Sar = CNCC(=O)O

T1: recombinant rat MASP1 active protease (amino acids 302-704, C-terminal His Tag) (rat, UniProt Q8CHN8 302-704)
T1 sequence: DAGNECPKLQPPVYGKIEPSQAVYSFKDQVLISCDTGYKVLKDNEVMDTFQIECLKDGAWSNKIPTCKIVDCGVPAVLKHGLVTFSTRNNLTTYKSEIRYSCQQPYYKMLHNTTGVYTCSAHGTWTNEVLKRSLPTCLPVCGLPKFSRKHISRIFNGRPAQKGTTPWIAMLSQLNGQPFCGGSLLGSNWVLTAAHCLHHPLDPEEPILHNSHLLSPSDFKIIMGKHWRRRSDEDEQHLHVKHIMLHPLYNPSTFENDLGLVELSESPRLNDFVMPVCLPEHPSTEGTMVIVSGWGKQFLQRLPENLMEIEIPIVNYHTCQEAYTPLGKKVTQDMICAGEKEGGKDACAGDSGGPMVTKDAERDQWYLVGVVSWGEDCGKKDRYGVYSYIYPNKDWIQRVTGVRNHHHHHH

B1: Example 490: (4-Carboxybenzoic acid)-GIC+SRSLP-(Oic)-I-(Pen)+IPD-OH (peptide)
peptide: {Benzoyl(4-COOH)}-GICSRSLP[Oic]I[Pen]IPD-OH
modifications: disulfide 3-11
SMILES: CC[C@H](C)[C@H](NC(=O)CNC(=O)c1ccc(C(=O)O)cc1)C(=O)N[C@H]1CSSC(C)(C)[C@@H](C(=O)N[C@H](C(=O)N2CCC[C@H]2C(=O)N[C@@H](CC(=O)O)C(=O)O)[C@@H](C)CC)NC(=O)[C@H]([C@@H](C)CC)NC(=O)[C@@H]2C[C@@H]3CCCC[C@@H]3N2C(=O)[C@@H]2CCCN2C(=O)[C@H](CC(C)C)NC(=O)[C@H](CO)NC(=O)[C@H](CCCNC(=N)N)NC(=O)[C@H](CO)NC1=O
B2: Example 496: ((N-Me)G)-IC+SRS-((tBu)A)-PPI-(Pen)+IP-(PEG5-CH2CO2H(18 atoms))-OH (peptide)
peptide: [Sar]ICSRS[tBuAla]PPI[Pen]IP-{PEG5‑CH2CO2H(18 atoms)-OH}
modifications: disulfide 3-11
B3: Example 492: ((N-Me)G)-IC+SRSLP-(Oic)-I-(Pen)+IPT-OH (peptide)
peptide: [Sar]ICSRSLP[Oic]I[Pen]IPT-OH
modifications: disulfide 3-11; N-terminus assumed
SMILES: CC[C@H](C)[C@H](NC(=O)CNC)C(=O)N[C@H]1CSSC(C)(C)[C@@H](C(=O)N[C@H](C(=O)N2CCC[C@H]2C(=O)N[C@H](C(=O)O)[C@@H](C)O)[C@@H](C)CC)NC(=O)[C@H]([C@@H](C)CC)NC(=O)[C@@H]2C[C@@H]3CCCC[C@@H]3N2C(=O)[C@@H]2CCCN2C(=O)[C@H](CC(C)C)NC(=O)[C@H](CO)NC(=O)[C@H](CCCNC(=N)N)NC(=O)[C@H](CO)NC1=O
B4: Example 494: ((N-Me)G)-IC+SRSLP-(Oic)-I-(Pen)+IPDA-OH (peptide)
peptide: [Sar]ICSRSLP[Oic]I[Pen]IPDA-OH
modifications: disulfide 3-11; N-terminus assumed
SMILES: CC[C@H](C)[C@H](NC(=O)CNC)C(=O)N[C@H]1CSSC(C)(C)[C@@H](C(=O)N[C@H](C(=O)N2CCC[C@H]2C(=O)N[C@@H](CC(=O)O)C(=O)N[C@@H](C)C(=O)O)[C@@H](C)CC)NC(=O)[C@H]([C@@H](C)CC)NC(=O)[C@@H]2C[C@@H]3CCCC[C@@H]3N2C(=O)[C@@H]2CCCN2C(=O)[C@H](CC(C)C)NC(=O)[C@H](CO)NC(=O)[C@H](CCCNC(=N)N)NC(=O)[C@H](CO)NC1=O
B5: Example 526: ((N-Me)G)-IC+SRS-((tBu)A)-P-((1S,2S,5R)-3-azabicyclo[3.1.0]hexane-2-carboxylic acid)-I-(Pen)+IPD-OH (peptide)
peptide: [Sar]ICSRS[tBuAla]P[Pro(3S,4R-methano)]I[Pen]IPD-OH
modifications: disulfide 3-11; N-terminus assumed
SMILES: CC[C@H](C)[C@H](NC(=O)CNC)C(=O)N[C@H]1CSSC(C)(C)[C@@H](C(=O)N[C@H](C(=O)N2CCC[C@H]2C(=O)N[C@@H](CC(=O)O)C(=O)O)[C@@H](C)CC)NC(=O)[C@H]([C@@H](C)CC)NC(=O)[C@@H]2[C@H]3C[C@H]3CN2C(=O)[C@@H]2CCCN2C(=O)[C@H](CC(C)(C)C)NC(=O)[C@H](CO)NC(=O)[C@H](CCCNC(=N)N)NC(=O)[C@H](CO)NC1=O
B6: Example 493: ((N-Me)G)-IC+SRSLP-(Oic)-I-(Pen)+IPY-OH (peptide)
peptide: [Sar]ICSRSLP[Oic]I[Pen]IPY-OH
modifications: disulfide 3-11; N-terminus assumed
SMILES: CC[C@H](C)[C@H](NC(=O)CNC)C(=O)N[C@H]1CSSC(C)(C)[C@@H](C(=O)N[C@H](C(=O)N2CCC[C@H]2C(=O)N[C@@H](Cc2ccc(O)cc2)C(=O)O)[C@@H](C)CC)NC(=O)[C@H]([C@@H](C)CC)NC(=O)[C@@H]2C[C@@H]3CCCC[C@@H]3N2C(=O)[C@@H]2CCCN2C(=O)[C@H](CC(C)C)NC(=O)[C@H](CO)NC(=O)[C@H](CCCNC(=N)N)NC(=O)[C@H](CO)NC1=O
B7: Example 498: ((N-Me)G)-IC+SRS-((tBu)A)-PPI-(Pen)+IP-(PEG1(10 atoms))-OH (peptide)
peptide: [Sar]ICSRS[tBuAla]PPI[Pen]IP-{PEG2-OH}
modifications: disulfide 3-11
B8: Example 497: ((N-Me)G)-IC+SRS-((tBu)A)-PPI-(Pen)+IP-((N-Me)G)-((N-Me)G)-((N-Me)G)-OH (peptide)
peptide: [Sar]ICSRS[tBuAla]PPI[Pen]IP[Sar][Sar][Sar]-OH
modifications: disulfide 3-11; N-terminus assumed
SMILES: CC[C@H](C)[C@H](NC(=O)CNC)C(=O)N[C@H]1CSSC(C)(C)[C@@H](C(=O)N[C@H](C(=O)N2CCC[C@H]2C(=O)N(C)CC(=O)N(C)CC(=O)N(C)CC(=O)O)[C@@H](C)CC)NC(=O)[C@H]([C@@H](C)CC)NC(=O)[C@@H]2CCCN2C(=O)[C@@H]2CCCN2C(=O)[C@H](CC(C)(C)C)NC(=O)[C@H](CO)NC(=O)[C@H](CCCNC(=N)N)NC(=O)[C@H](CO)NC1=O
B9: Example 485: ((N-Me)G)-IC+SRS-((tBu)A)-PPI-(Pen)+IP-(PEG3(16atoms))-OH (peptide)
peptide: [Sar]ICSRS[tBuAla]PPI[Pen]IP[PEG4]-OH
modifications: disulfide 3-11; N-terminus assumed
SMILES: CC[C@H](C)[C@H](NC(=O)CNC)C(=O)N[C@H]1CSSC(C)(C)[C@@H](C(=O)N[C@H](C(=O)N2CCC[C@H]2C(=O)NCCOCCOCCOCCOCCC(=O)O)[C@@H](C)CC)NC(=O)[C@H]([C@@H](C)CC)NC(=O)[C@@H]2CCCN2C(=O)[C@@H]2CCCN2C(=O)[C@H](CC(C)(C)C)NC(=O)[C@H](CO)NC(=O)[C@H](CCCNC(=N)N)NC(=O)[C@H](CO)NC1=O
B10: Example 495: ((N-Me)G)-IC+SRSLP-(Oic)-I-(Pen)+IPGd-OH (peptide)
peptide: [Sar]ICSRSLP[Oic]I[Pen]IPG[dD]-OH
modifications: disulfide 3-11; N-terminus assumed
SMILES: CC[C@H](C)[C@H](NC(=O)CNC)C(=O)N[C@H]1CSSC(C)(C)[C@@H](C(=O)N[C@H](C(=O)N2CCC[C@H]2C(=O)NCC(=O)N[C@H](CC(=O)O)C(=O)O)[C@@H](C)CC)NC(=O)[C@H]([C@@H](C)CC)NC(=O)[C@@H]2C[C@@H]3CCCC[C@@H]3N2C(=O)[C@@H]2CCCN2C(=O)[C@H](CC(C)C)NC(=O)[C@H](CO)NC(=O)[C@H](CCCNC(=N)N)NC(=O)[C@H](CO)NC1=O
B11: Example 487: ((N-Me)G)-IC+SRSLP-(Oic)-I-(Pen)+IPR-OH (peptide)
peptide: [Sar]ICSRSLP[Oic]I[Pen]IPR-OH
modifications: disulfide 3-11; N-terminus assumed
SMILES: CC[C@H](C)[C@H](NC(=O)CNC)C(=O)N[C@H]1CSSC(C)(C)[C@@H](C(=O)N[C@H](C(=O)N2CCC[C@H]2C(=O)N[C@@H](CCCNC(=N)N)C(=O)O)[C@@H](C)CC)NC(=O)[C@H]([C@@H](C)CC)NC(=O)[C@@H]2C[C@@H]3CCCC[C@@H]3N2C(=O)[C@@H]2CCCN2C(=O)[C@H](CC(C)C)NC(=O)[C@H](CO)NC(=O)[C@H](CCCNC(=N)N)NC(=O)[C@H](CO)NC1=O
B12: Example 488: ((R)-Piperidine-3-Carboxylic Acid)-IC+SRSLP-(Oic)-I-(Pen)+IPD-OH (peptide)
peptide: [(R)‑Piperidine‑3‑Carboxylic Acid]ICSRSLP[Oic]I[Pen]IPD-OH
modifications: disulfide 3-11
B13: Example 491: (3-Carboxybenzoic acid)-GIC+SRSLP-(Oic)-I-(Pen)+IPD-OH (peptide)
peptide: {Benzoyl(3-COOH)}-GICSRSLP[Oic]I[Pen]IPD-OH
modifications: disulfide 3-11
SMILES: CC[C@H](C)[C@H](NC(=O)CNC(=O)c1cccc(C(=O)O)c1)C(=O)N[C@H]1CSSC(C)(C)[C@@H](C(=O)N[C@H](C(=O)N2CCC[C@H]2C(=O)N[C@@H](CC(=O)O)C(=O)O)[C@@H](C)CC)NC(=O)[C@H]([C@@H](C)CC)NC(=O)[C@@H]2C[C@@H]3CCCC[C@@H]3N2C(=O)[C@@H]2CCCN2C(=O)[C@H](CC(C)C)NC(=O)[C@H](CO)NC(=O)[C@H](CCCNC(=N)N)NC(=O)[C@H](CO)NC1=O
B14: Example 489: ((S)-Piperidine-3-Carboxylic Acid)-IC+SRSLP-(Oic)-I-(Pen)+IPD-OH (peptide)
peptide: [(S)‑Piperidine‑3‑Carboxylic Acid]ICSRSLP[Oic]I[Pen]IPD-OH
modifications: disulfide 3-11
B15: Example 486: ((N-Me)G)-IC+SRS-((tBu)A)-PPI-(Pen)+IP-(Orn)-D-OH (peptide)
peptide: [Sar]ICSRS[tBuAla]PPI[Pen]IP[Orn]D-OH
modifications: disulfide 3-11; N-terminus assumed
SMILES: CC[C@H](C)[C@H](NC(=O)CNC)C(=O)N[C@H]1CSSC(C)(C)[C@@H](C(=O)N[C@H](C(=O)N2CCC[C@H]2C(=O)N[C@@H](CCCN)C(=O)N[C@@H](CC(=O)O)C(=O)O)[C@@H](C)CC)NC(=O)[C@H]([C@@H](C)CC)NC(=O)[C@@H]2CCCN2C(=O)[C@@H]2CCCN2C(=O)[C@H](CC(C)(C)C)NC(=O)[C@H](CO)NC(=O)[C@H](CCCNC(=N)N)NC(=O)[C@H](CO)NC1=O

What was measured:
[1] = target: T1, recombinant rat MASP1 active protease …; assay: cell-based or functional assay
[2] = target: recombinant rat MASP2 active protease (amino acids 296-685, C-terminal His Tag) (rat, UniProt Q9JJS8 296-685); assay: cell-based or functional assay
recombinant rat MASP2 active protease (amino acids 296-685, C-terminal His Tag), sequence (Q9JJS8 other isoform, or with tags, fused parts or gaps limits assumed): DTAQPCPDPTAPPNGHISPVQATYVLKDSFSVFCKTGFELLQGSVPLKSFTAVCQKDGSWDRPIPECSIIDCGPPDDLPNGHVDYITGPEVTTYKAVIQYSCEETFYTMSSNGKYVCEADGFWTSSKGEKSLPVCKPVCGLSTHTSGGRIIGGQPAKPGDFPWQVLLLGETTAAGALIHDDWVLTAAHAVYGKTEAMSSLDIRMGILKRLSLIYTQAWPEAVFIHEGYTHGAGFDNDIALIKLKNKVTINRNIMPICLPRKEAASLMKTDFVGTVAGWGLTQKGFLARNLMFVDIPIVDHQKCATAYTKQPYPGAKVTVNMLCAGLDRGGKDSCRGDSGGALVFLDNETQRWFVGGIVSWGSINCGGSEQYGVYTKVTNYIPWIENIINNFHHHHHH

Binder	rat MASP1 IC50 [1] [nM]	rat MASP2 IC50 [2] [nM]
B1	12.5	15
B2	31	31
B3	65	81
B4	38	62
B5	485	253
B6	44	49
B7	44	42
B8	58	39
B9	36	32
B10	45	66
B11	67	38
B12	41	36
B13	20	23
B14	42	22
B15	69	68
